From patent US20060024297A1 (published 2006) come the findings set out here.

For experiment [1], the target named is T1, endogenous human Tie1 of primary human endothelial cells (HDMEC/HDMVEC, HUVEC) and human tissues (human, UniProt P35590 25-1138).
T1 construct: also called endogenous Tie1; Tie-1 in HUVEC
Briefly: Western blot, HDMEC. How it is done: (§1) COS1 cells were transfected with pcDNA3-Tie1-V5 (1 μg DNA per 10 cm cell culture plate) using FUGENE 6 (Roche) according to manufacturer's instruction and incubated for 48 h before stimulation. For immunoprecipitation, Tie1 transfected cells and HMVEC cells were lysed in DOC-RIPA lysis buffer (50 mM Tris-HCl pH 8.0, 150 mM NaCl, 1% Triton-X-100, 0.1% SDS, 1% DOC, 10 mM EDTA) supplemented with aprotinin, leupeptin, PMSF and sodium vanadate. Immunoprecipitation was carried out from equal amount of cell lysates by incubating with polyclonal anti-human Tie1 antibodies (R&D), monoclonal anti-V5 antibodies (Invitrogen) or altogether 23 anti-Tie1 antibodies (1μg/ml) for 1 to 2 h followed by incubation with protein G-Sepharose (Amersham Pharmacia Biotech AB) for 1 h. The immunoprecipitates were washed twice with PBS-T and twice with PBS, followed by elution with the Laemmli buffer and separation in 8% SDS-PAGE. The blots were probed with the 23 anti-Tie1 antibodies (5 μg/ml) and subsequently anti-human Fc antibodies conjugated with HRP.
(§2) Next, to find out if the anti-Tie1 antibodies recognize Tie1 in living cells, those cells were studied by immunofluorescence staining.

Experiment [2] deals with T2, human Tie1, full length, V5-tagged (pcDNA3-Tie1-V5), in transiently transfected COS1 cells (human, UniProt P35590 25-1138).
T2 construct: it is not expressly tied to the pcDNA3-Tie1-V5 construct; also called Tie1-transfected; transfected Tie1
Briefly: Western blot, Tie1-V5-transfected COS1. On the procedure:
as §1, §2

Experiment [3] addresses T3, recombinant mouse Tie1-Fc (mouse, UniProt Q06806 23-755, limits assumed).
T3 construct: also called Tie-1 Fc Mouse; not shown: Fc
T3 sequence (looked up): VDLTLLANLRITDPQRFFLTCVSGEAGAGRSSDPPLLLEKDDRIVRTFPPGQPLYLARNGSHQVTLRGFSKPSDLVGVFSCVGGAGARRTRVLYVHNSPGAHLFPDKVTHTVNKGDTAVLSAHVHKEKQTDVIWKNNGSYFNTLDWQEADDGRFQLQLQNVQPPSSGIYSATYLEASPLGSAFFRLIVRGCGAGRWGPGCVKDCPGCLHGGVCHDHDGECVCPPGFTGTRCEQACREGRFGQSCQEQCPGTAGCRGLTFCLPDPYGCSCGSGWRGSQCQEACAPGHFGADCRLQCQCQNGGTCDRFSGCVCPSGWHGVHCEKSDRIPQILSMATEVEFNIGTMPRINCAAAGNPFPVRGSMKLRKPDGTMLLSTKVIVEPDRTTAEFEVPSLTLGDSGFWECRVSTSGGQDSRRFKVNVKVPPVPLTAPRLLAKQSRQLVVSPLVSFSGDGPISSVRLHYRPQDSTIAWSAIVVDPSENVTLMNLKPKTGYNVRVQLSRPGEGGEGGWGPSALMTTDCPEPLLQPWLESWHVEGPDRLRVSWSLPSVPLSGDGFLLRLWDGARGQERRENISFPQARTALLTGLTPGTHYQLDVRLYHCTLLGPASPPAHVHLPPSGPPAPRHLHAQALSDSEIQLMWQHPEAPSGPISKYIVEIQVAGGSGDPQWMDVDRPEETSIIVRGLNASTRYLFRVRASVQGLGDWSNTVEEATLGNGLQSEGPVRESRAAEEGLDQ
The experiment is described as follows: BIAcore, Fab over biotinylated mouse Tie1-Fc on streptavidin chip, 1:1 fit. How it is done: Mouse Tie 1-Fc antigen (0.5 mg/ml stock) was biotinylated using established procedures and after dilution 1/100 fold in HBS this was then used for capturing to a streptavidin chip. This was coated to a resonance value of 740RU. All analysis was performed in HBS buffer. […] Serial dilutions were made of each Fab preparation to obtain 10 nM, 5 nM, 2.5 nM, and 1.25 nM. For the association phase samples were injected at 30 μl/min for 4 minutes using kinject program. This was followed by a 10 minutes dissociation phase, any remaining sample was stripped from the Tie-1 Fc surface at a flow of 50 μl/min with a single injection of 50 mM NaOH+1 M NaCl for 18 seconds. All samples were run and analyzed in duplicate.
(§3) Sensorgrams were analyzed using the simultaneous ka/kd fitting program with 1:1 model in the BIAEVALUATION™ software 3.1.
On the technique in general: SPR reads the build-up and loss of mass on a sensor chip optically.

The target in experiment [4] is T4, recombinant human Tie1-Fc (Tie1 extracellular domain fused to human Fc) (human, UniProt P35590 25-759).
T4 construct: also called Tie-1 Fc Human; not shown: human Fc
T4 sequence: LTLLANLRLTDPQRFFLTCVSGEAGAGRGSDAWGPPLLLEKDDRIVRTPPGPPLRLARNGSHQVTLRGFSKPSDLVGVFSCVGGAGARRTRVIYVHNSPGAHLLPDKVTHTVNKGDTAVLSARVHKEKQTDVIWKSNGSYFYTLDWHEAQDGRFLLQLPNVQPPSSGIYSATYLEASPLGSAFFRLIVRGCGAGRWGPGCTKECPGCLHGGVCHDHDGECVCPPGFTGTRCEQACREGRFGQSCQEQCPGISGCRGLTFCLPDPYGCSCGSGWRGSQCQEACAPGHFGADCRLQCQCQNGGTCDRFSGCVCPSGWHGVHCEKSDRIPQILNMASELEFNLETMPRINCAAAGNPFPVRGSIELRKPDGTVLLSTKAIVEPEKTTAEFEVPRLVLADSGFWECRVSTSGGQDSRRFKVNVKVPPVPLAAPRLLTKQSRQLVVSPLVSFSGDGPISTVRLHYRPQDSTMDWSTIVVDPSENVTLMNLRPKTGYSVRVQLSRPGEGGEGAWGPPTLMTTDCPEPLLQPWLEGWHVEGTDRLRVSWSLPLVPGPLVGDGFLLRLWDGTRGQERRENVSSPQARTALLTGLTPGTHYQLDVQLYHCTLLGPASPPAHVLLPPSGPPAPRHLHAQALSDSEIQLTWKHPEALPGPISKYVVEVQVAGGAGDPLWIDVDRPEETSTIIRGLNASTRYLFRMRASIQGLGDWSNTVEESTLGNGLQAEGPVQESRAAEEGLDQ
The experiment is described as follows: BIAcore, Fab over biotinylated human Tie1-Fc on streptavidin chip, 1:1 fit. How it is done: Recombinant purified human Tie1-Fc antigen (Stock 2.45 mg/ml) was biotinylated using the EZ-link Sulfo-NHS-SS-Biotin (Pierce, Cat. 21331). The reaction was performed for 2 hours on ice in 50 mM sodium carbonate buffer, pH 9.6, in the presence of a 5-fold molar excess of biotinylating agent and was stopped by the addition of Tris-HCl, pH 7.5 (50 mM final concentration) followed by a 1-hour incubation on ice. Samples were then dialyzed against PBS. The antigen was then diluted 1/100 fold in HBS and was then captured onto a streptavidin chip. This was coated to a density of 830RU (resonance units). All analysis was performed in HBS buffer. […] Serial dilutions were made of each Fab preparation to obtain 10 nM, 5 nM, 2.5 nM, and 1.25 nM solutions. For the association phase samples were injected at 30 μl/min for 4 minutes using kinject program. This was followed by a 10 minutes dissociation phase, any remaining sample was stripped from the Tie-1 Fc surface at a flow of 50 μl/min with a single injection of 5 mM NaOH+1M NaCl for 18 seconds. All samples were run and analyzed in duplicate.
as §3

In experiment [5] the target is T4, recombinant human Tie1-Fc (Tie1 …). The experiment is described as follows: BIAcore, Fab over human Tie-1/Fc coupled to CM5 chip, 1:1 fit. How it is done: Recombinant human Tie-1/Fc was coated on a CM5 chip. The surface of the chip was first activated with a 7-minute pulse of 0.05 M NHS/0.2 M EDC, then Tie-1/Fc (2 μg/ml in 10 mM sodium acetate, pH 4.0) was run over the chip surface until 750 RUs were coated on the surface. All flow cells were subsequently deactivated with a 7-minute pulse of 1 M ethanolamine hydrochloride, pH 8.5. All further experiments were performed in HBS buffer.
A series of dilution (50, 25, 12.5, 6.25 and 3.125 nM) was prepared in HBS buffer. Samples were injected at 30 μl/min for 5.3 minutes using the KINJECT™ program. This was followed by a 10-minute dissociation phase, and the remaining Fab was stripped from the surface with a single 18-sec injection of 50 mM NaOH/1 M NaCl.
Sensorgrams were analyzed using the simultaneous ka/kd fitting program from the BIAEVALUATION™ software 3.1 assuming a 1:1 model.

The term Kd denotes a measure of binding affinity in units of concentration. The term koff denotes the first-order rate constant of dissociation. What is called kon is the second-order rate constant of association.

B1: P-F3 IgG (anti-Tie1 isolate p-F3, human IgG1) (antibody, V domains shown)
VH: EVQLLESGGGLVQPGGSLRLSCAASGFTFSMYGMGWVRQAPGKGLEWVSVISPSGGQTAYADSVKGRFTISRDNSKNTLYLQMNSLRAEDTAVYYCARVALLLGHAFDIWGQGTMVTVSS
VL: DIQMTQSPSTLSASLGDRVTITCRASESISRWLAWYQQKPGKAPKLLMYEASTLESGVPSRFTGTGSGTEFTLTISSLQPDDFATYYCQQRSNWPLTFGGG
notes: the VL entry stops within FR4
As to B1, the binding result in experiment [1] and in experiment [2] was “binds” throughout.

B2: P-F4 IgG (anti-Tie1 isolate p-F4, human IgG1) (antibody, V domains shown)
VH: EVQLLESGGGLVQPGGSLRLSCAASGFTFSAYMMSWVRQAPGKGLEWVSSIYPSGGYTYYADSVKGRFTISRDNSKNTLYLQMNSLRAEDTAVYYCARGLRGGPDYWGQGTLVTVSS
VL: DIQMTQSPSTLSAYVGDSVTITCRASQSVRRSLAWYQQRPGKAPKSLIYKASTLETGVPPRFSGSGSGTEFTLTISSLQPEDSAIYYCQQYGSFPLTFGGG
notes: the VL entry stops within FR4
On to B2, for which the binding result in experiment [1] and in experiment [2] was “binds” each time.

B3: P-C6 IgG (anti-Tie1 isolate p-C6, human IgG1) (antibody, V domains shown)
VH: EVQLLESGGGLVQPGGSLRLSCAASGFTFSHYGMTWVRQAPGKGLEWVSVISPSGGQTGYADSVKGRFTISRDNSKNTLYLQMNSLRAEDTAVYYCAGGGYAAFDYWGQGTLVTVSS
VL: DIQMTQSPATLSLSPGERATLSCRASQSVSSYLAWYQQKPGQAPRLLIYDASNRATGIPARFSGSGSGTDFTLTISSLEPEDFAVYYCQQRSNWPLTFGGG
notes: the VL entry stops within FR4
As for B3, the binding result in experiment [1] and in experiment [2] was “binds” throughout.

B4: germlined E3 Fab (light chain framework regions germlined to DPK4; heavy chain as parental) (Fab, V domains shown)
VH: EVQLLESGGGLVQPGGSLRLSCAASGFTFSMYGMVWVRQAPGKGLEWVSVISPSGGNTGYADSVKGRFTISRDNSKNTLYLQVNSLRAEDTAVYYCARAPRGYSYGYYYWGQGTLVTVSS
VL: DIQMTQSPSSLSASVGDRVTITCRASQGIGHYLAWYQQKPGKVPKLLIYTASTLQSGVPSRFSGSGSGTDFTLTISSLQPEDVATYYCQQFNSYPHTFGQGTRLEIK
notes: also called germlined Fab E3; E3 germlined
Consider B4, for which, in experiment [3], the Kd stood at 3.1 nM, the koff is 0.00104 s⁻¹ and the kon worked out at 340000 M⁻¹ s⁻¹. In experiment [4], the Kd turned out to be 3.4 nM, the koff amounted to 0.00102 s⁻¹ and the kon came to 300000 M⁻¹ s⁻¹.

B5: E3 Fab (parental, soluble Fab) (Fab, V domains shown)
VH: EVQLLESGGGLVQPGGSLRLSCAASGFTFSMYGMVWVRQAPGKGLEWVSVISPSGGNTGYADSVKGRFTISRDNSKNTLYLQVNSLRAEDTAVYYCARAPRGYSYGYYYWGQGTLVTVSS
VL: DIQMTQSPLSLSASVGDRVTITCRASQGIGHYLAWYQQKPGKVPKLLIYTASTLQSGVPSRFSGSGSGTDFTLTINSLQPEDVATYYCQQFNSYPHTFGQGTRLDIK
notes: also called parental E3 Fab; parental Fab E3
In the case of B5, the figures for the Kd in experiment [5], in experiment [3] and in experiment [4] were 12 nM, 3.9 nM and 2 nM, respectively. Besides, the figures for the koff in experiment [5], in experiment [3] and in experiment [4] were 0.00105 s⁻¹, 0.00095 s⁻¹ and 0.00061 s⁻¹, respectively. The figures for the kon in experiment [5], in experiment [3] and in experiment [4] were 88100 M⁻¹ s⁻¹, 246000 M⁻¹ s⁻¹ and 300000 M⁻¹ s⁻¹, respectively.

B6: E3b Fab (germlined heavy chain and germlined light chain of E3) (Fab, V domains shown)
VH: EVQLLESGGGLVQPGGSLRLSCAASGFTFSMYGMVWVRQAPGKGLEWVSVISPSGGNTGYADSVKGRFTISRDNSKNTLYLQMNSLRAEDTAVYYCARAPRGYSYGYYYWGQGTLVTVSS
VL: DIQMTQSPSSLSASVGDRVTITCRASQGIGHYLAWYQQKPGKVPKLLIYTASTLQSGVPSRFSGSGSGTDFTLTISSLQPEDVATYYCQQFNSYPHTFGQGTRLEIK
notes: also called Fab E3b; germlined (E3b)
Take B6: in experiment [5], the equilibrium dissociation constant (Kd) was 7 nM, the koff is 0.00101 s⁻¹ and the kon was 136000 M⁻¹ s⁻¹.

B7: P-D12 IgG (anti-Tie1 isolate p-D12, human IgG1) (antibody, V domains shown)
VH: EVQLLESGGGLVQPGGSLRLSCAASGFTFSGYGMHWVRQAPGKGLEWVSVISPSGGQTSYADSVKGRFTISRDNSKNTLYLQMNSLRAEDTAVYYCARDRQYYYGSGSLDYWGQGTLVTVSS
VL: DIQMTQSPSSLSASVGDRVTVTCRASQSISSYLNWYQQKPGKAPKLLIYAASSLQSGVPSRFSGGGSGTDFTLTISSLQPEDFATYFCLQDYKYPWTFGQG
notes: the VL entry stops within FR4
Turning to B7, the binding result in experiment [1] and in experiment [2] was “binds” throughout.
